Experimental data taken from paper PMC4490337, “Revisiting the intraperoxisomal pathway of mammalian PEX7” (Scientific Reports, 2015).

T1: PEX7 (in vitro synthesized) (human, UniProt O00628 1-323, unlabeled in the native-PAGE analyses; [35S]methionine label in the import/export assays)
T1 sequence (looked up): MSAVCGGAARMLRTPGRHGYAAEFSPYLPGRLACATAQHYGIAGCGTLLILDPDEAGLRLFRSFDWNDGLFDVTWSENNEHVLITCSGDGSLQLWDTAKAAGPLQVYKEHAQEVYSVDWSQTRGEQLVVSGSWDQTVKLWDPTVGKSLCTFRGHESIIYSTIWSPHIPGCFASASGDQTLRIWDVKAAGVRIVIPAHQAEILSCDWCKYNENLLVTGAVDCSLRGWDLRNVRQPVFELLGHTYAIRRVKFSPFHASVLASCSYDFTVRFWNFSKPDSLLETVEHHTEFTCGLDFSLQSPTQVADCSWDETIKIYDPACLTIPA


What was measured:
[1] = target: T1, PEX7 (in vitro synthesized); test: cell-based or functional assay
[2] = target: T1, PEX7 (in vitro synthesized); test: native gel or EMSA; chase of the pre-assembled trimeric ΔC1PEX5L-PEX7-35S-prePHYH complex with excess recombinant prePHYH (100 ng) at 23 °C, aliquots over 8 h; band intensity against time; details: partners not purified

| amount of 35S-labeled PEX7 exported from peroxisomes in 15 min after pre-incubation with ΔC1PEX5L, against pre-incubation with export-incompetent ΔC1PEX5L(C11A) [1] | half-life of prePHYH in the trimeric complex (with m3) [2] | Binder |
| --- | --- | --- |
| ~2 fold | – | ΔC1PEX5L, recombinant protein comprising amino acid residues 1-324 of the large isoform of human PEX5 (domain or fragment) not shown |
| – | 3.06 h | radiolabeled pre-phytanoyl-CoA hydroxylase (35S-prePHYH) (natural protein, human, UniProt O14832 1-338, looked up, [35S]methionine label, human phytanoyl-CoA hydroxylase, precursor form with the PTS2 (prePHYH); cDNA amplified with primers from the start to the stop codon and cloned into pGEM4 (pGEM4-prePHYH); also called radiolabeled prePHYH; source: in vitro translated (TNT T7 quick coupled kit, rabbit reticulocyte lysate), not purified) MEQLRAAARLQIVLGHLGRPSAGAVVAHPTSGTISSASFHPQQFQYTLDNNVLTLEQRKFYEENGFLVIKNLVPDADIQRFRNEFEKICRKEVKPLGLTVMRDVTISKSEYAPSEKMITKVQDFQEDKELFRYCTLPEILKYVECFTGPNIMAMHTMLINKPPDSGKKTSRHPLHQDLHYFPFRPSDLIVCAWTAMEHISRNNGCLVVLPGTHKGSLKPHDYPKWEGGVNKMFHGIQDYEENKARVHLVMEKGDTVFFHPLLIHGSGQNKTQGFRKAISCHFASADCHYIDVKGTSQENIEKEVVGIAHKFFGAENSVNLKDIWMFRARLVKGERTNL |
